In the Immune Epitope Database (IEDB):

What was measured:
HLA-A*68:02 [1] = assay: IEDB peptide-MHC binding, purified MHC/competitive/radioactivity; ≥ and ≤ were set here for values at or beyond the usual limits of such assays
HLA-A*02:03 = assay: IEDB peptide-MHC binding, cellular MHC/competitive/fluorescence; ≥ and ≤ were set here for values at or beyond the usual limits of such assays
HLA-A*02:06 = assay: as above
HLA-A*02:02 = assay: as above
HLA-A*02:01 [2] = assay: as above
HLA-A*02:01 [3] = assay: IEDB peptide-MHC binding, purified MHC/competitive/radioactivity; ≥ and ≤ were set here for values at or beyond the usual limits of such assays; conditions: source organism: Vaccinia virus WR
HLA-A*68:02 [4] = assay: IEDB peptide-MHC binding, cellular MHC/competitive/fluorescence; ≥ and ≤ were set here for values at or beyond the usual limits of such assays; conditions: source organism: Vaccinia virus WR
[5] = source organism: Vaccinia virus WR
[6] = source organism: Influenza A virus
[7] = source organism: Mammarenavirus guanaritoense

Row | Sequence | IC50 (HLA-A*68:02 [1]; [5]) [nM] | IC50 (HLA-A*02:03; [5]) [µM] | IC50 (HLA-A*02:06; [5]) [µM] | IC50 (HLA-A*02:02; [5]) [µM] | IC50 (HLA-A*02:01 [2]; [5]) [µM] | further results
1 | LIYYQNEVT | 1080 | 5.21 | 8.51 | 14 | 27.9 | –
2 | ETVKMGAFM | 81 | 7.43 | 40.2 | 15 | ≥ 70 | –
3 | DMLLNVQTL | – | 5.07 | 13.4 | 7.4 | – | IC50 (HLA-A*02:01 [3]): 3.15 µM; IC50 (HLA-A*68:02 [4]): 5.05 µM
4 | DTSPTKRCRL | 1990 | 37.1 | 44.6 | 12.2 | ≥ 70 | –
5 | TAEQLSKYV | 2170 | 8.9 | 23.9 | 5.22 | 53.2 | –
6 | NACDKHNKT | 925 | 9.25 | 18.6 | 17.9 | 22.5 | –
7 | QQNNSFIIST | – | 5.04 | 5.71 | 7 | – | IC50 (HLA-A*02:01 [3]): 1.23 µM; IC50 (HLA-A*68:02 [4]): 8.51 µM
8 | NTGMGMYYPT | 2150 | 21 | 11.3 | 23.4 | 28.8 | –
9 | PLTLLIKTL | – | 6.15 | 8.1 | 5.27 | – | IC50 (HLA-A*02:01 [3]): 4.78 µM; IC50 (HLA-A*68:02 [4]): 6.22 µM
10 | WILWISFAIS | – | – | – | – | – | IC50 (HLA-A*68:02 [1]; [6]): 2510 nM; IC50 (HLA-A*02:03; [6]): 9.09 µM; IC50 (HLA-A*02:06; [6]): 27.2 µM; IC50 (HLA-A*02:02; [6]): 18.7 µM; IC50 (HLA-A*02:01 [2]; [6]): 21.2 µM
11 | FTELENKKV | 3980 | 8.08 | 6.84 | 19.6 | ≥ 70 | –
12 | DVIKSISSI | 504 | 7.52 | 15 | 63.8 | 32 | –
13 | DAIKSNNHLT | 768 | 17.9 | ≥ 70 | 27.4 | ≥ 70 | –
14 | RASTTENAA | 314 | 66.7 | 12.1 | 26.7 | ≥ 70 | –
15 | STSNVITDQT | 77 | ≥ 70 | 10.8 | 53.6 | 39.1 | –
16 | IAIFNNRNL | 262 | 10.5 | 13.5 | 9.23 | 38.5 | –
17 | DVEKRILNTI | 4400 | 12.6 | 10.8 | 21 | 55.1 | –

Row | Sequence | IC50 (HLA-A*68:02 [1]; [5]) [nM] | IC50 (HLA-A*02:03; [5]) [µM] | IC50 (HLA-A*02:06; [5]) [µM] | IC50 (HLA-A*02:02; [5]) [µM] | IC50 (HLA-A*02:01 [2]; [5]) [µM] | further results
18 | EVIGLTTHCT | 17 | 14.9 | 12.2 | 10.5 | 24.8 | –
19 | LTSNCTRTT | 2020 | 29.6 | 40.7 | ≥ 70 | ≥ 70 | –
20 | DVSVSVGTGI | 424 | 5.83 | 22.2 | 17.9 | ≥ 70 | –
21 | MAFILGIII | 4930 | 9.76 | 32.5 | 9.54 | 5.87 | –
22 | IMECSRMLDT | – | 7.2 | ≥ 70 | 5.24 | – | IC50 (HLA-A*02:01 [3]): 3.1 µM; IC50 (HLA-A*68:02 [4]): ≥ 70 µM
23 | AVYFKAKWLT | 605 | 8.93 | 8.71 | 27.2 | 8.89 | –
24 | DTIESAKTKI | 570 | 50.5 | ≥ 70 | 47.9 | 58.9 | –
25 | YTEAAAATCA | 159 | 16.1 | 7.16 | 36.5 | 36.5 | –
26 | NTLIQYRQQL | 876 | 10.1 | 20.9 | 6.37 | ≥ 70 | –
27 | YCLDFLFDV | – | – | – | – | – | IC50 (HLA-A*68:02 [1]; [7]): 24 nM; IC50 (HLA-A*02:03; [7]): ≥ 70 µM; IC50 (HLA-A*02:06; [7]): ≥ 70 µM; IC50 (HLA-A*02:02; [7]): 17.3 µM; IC50 (HLA-A*02:01 [2]; [7]): 40.7 µM
28 | EALYYVHSL | 347 | 5.77 | 14.8 | 14.2 | 17.6 | –
29 | CVDIFTEGKI | 1320 | 17.5 | 20.9 | ≥ 70 | 43.2 | –
30 | QTLISLNSM | – | 39.3 | 7.5 | 19.4 | – | IC50 (HLA-A*02:01 [3]): 4.82 µM; IC50 (HLA-A*68:02 [4]): 19.4 µM
31 | ETIQKDINI | 46 | 50.8 | 34.9 | 36.6 | ≥ 70 | –
32 | TVKNVDIIDL | 834 | 8.31 | 12.4 | 31.3 | 63.3 | –
33 | SILNNPVDT | – | 30.6 | 14.2 | 47.1 | – | IC50 (HLA-A*02:01 [3]): 4.63 µM; IC50 (HLA-A*68:02 [4]): 46.8 µM
34 | DTDIVNNFI | 628 | 19.4 | 15.7 | 9.32 | 26.2 | –
